Assay results published in patent publication US20250101074A1 (Affibody, published 2025).

Experiments:
Test in all cases: SPR (Biacore), PEP07843 immobilized, analyte protein injected
[1] = biological target: T1, Alpha-2-HS-glycoprotein (AHSG Human HEK) (human, UniProt P02765 19-367, limits assumed)
T1 sequence (looked up): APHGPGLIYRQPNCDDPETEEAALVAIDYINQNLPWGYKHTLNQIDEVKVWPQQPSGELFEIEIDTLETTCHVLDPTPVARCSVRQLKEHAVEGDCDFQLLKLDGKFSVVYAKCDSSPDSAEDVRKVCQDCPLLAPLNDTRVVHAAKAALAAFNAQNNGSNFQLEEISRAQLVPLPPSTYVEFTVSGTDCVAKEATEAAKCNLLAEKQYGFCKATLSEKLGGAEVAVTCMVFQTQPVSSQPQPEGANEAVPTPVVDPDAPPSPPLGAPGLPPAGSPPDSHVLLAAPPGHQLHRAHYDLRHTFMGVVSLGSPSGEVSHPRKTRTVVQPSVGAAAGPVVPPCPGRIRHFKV
Experimental: (§1) In the binding experiment, HBS-EP was used as running buffer and the flow rate was 30 μl/min. […] The analytes, i.e. the panels of 24 or 12 different proteins, were each diluted in HBS-EP or HBS-EP supplemented with 500 mM NaCl to final concentrations of from 0.4 to 250 nM and injected for 5 min. […] The results were analyzed using the BiaEvaluation software.
(§2) The Z-ABD-Z polypeptides were injected over surfaces containing HSA followed by injection of the analyte proteins.

[2] = biological target: T2, Human Hemopexin/HPX Protein (human, UniProt P02790 24-462)
T2 sequence (looked up): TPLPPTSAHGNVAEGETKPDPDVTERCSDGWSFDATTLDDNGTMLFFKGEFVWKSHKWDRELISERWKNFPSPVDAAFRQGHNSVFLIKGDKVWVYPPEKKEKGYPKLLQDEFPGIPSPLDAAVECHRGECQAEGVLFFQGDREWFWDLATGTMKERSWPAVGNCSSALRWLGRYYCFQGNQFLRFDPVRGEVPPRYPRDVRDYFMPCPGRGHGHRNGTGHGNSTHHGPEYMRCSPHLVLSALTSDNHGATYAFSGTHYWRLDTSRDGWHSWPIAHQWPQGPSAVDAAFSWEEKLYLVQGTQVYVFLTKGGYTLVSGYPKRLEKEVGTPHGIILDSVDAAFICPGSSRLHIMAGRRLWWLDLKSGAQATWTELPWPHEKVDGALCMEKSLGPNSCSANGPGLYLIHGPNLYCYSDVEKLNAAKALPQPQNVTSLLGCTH
Experimental: as §1, §2

[3] = biological target: T3, hIL-17C (human, UniProt Q9P0M4 19-197)
T3 sequence (looked up): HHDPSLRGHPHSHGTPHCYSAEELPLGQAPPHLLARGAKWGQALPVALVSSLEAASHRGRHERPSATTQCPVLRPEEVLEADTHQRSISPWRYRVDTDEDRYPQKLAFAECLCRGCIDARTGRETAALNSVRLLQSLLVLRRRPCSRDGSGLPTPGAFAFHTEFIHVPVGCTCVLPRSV
Experimental: as §1, §2

[4] = biological target: T4, Haptoglobin Human (seems to be beta chain) (human, UniProt P00738 162-406, limits assumed)
T4 sequence (looked up): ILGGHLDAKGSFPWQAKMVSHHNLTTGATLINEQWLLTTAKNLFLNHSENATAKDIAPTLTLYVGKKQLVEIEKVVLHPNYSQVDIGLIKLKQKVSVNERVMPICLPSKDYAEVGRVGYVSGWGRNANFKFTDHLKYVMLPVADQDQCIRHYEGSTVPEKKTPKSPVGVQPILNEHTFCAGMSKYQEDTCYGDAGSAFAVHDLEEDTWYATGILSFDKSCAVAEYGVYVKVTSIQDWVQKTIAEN
Experimental: as §1, §2

[5] = biological target: hIL-6 (human, UniProt P05231 29-212)
Experimental: as §1, §2

[6] = biological target: T5, human IL-17A (human, UniProt Q16552 20-155)
T5 construct: Peprotech cat. no; 200-17; homodimeric cytokine; biotinylated with Sulfo-NHS-LC-Biotin for the ELISAs; also called hIL-17A; rhIL-17A
T5 sequence: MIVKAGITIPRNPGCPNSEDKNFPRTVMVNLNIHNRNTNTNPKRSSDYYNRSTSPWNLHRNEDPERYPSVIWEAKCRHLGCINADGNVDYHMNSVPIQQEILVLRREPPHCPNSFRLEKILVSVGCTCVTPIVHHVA
Experimental: as §1, §2

[7] = biological target: Transthyretin/TTR/Prealbumin/PALB Protein (UniProt P02766 21-147)
Experimental: as §1, §2

[8] = biological target: T6, hIL-17B (human, UniProt Q9UHF5 21-180)
T6 sequence (looked up): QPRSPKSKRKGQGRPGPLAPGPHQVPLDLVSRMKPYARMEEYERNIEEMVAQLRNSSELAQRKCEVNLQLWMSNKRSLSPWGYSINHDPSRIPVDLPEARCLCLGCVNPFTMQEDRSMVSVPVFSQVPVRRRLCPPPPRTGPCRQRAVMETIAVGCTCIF
Experimental: as §1, §2

[9] = biological target: T7, human IL-17A/F heterodimer (human, UniProt Q16552 20-155; Q96PD4 31-163, limits assumed)
T7 construct: bought; also called hIL-17A/F
T7 sequence (looked up) 1: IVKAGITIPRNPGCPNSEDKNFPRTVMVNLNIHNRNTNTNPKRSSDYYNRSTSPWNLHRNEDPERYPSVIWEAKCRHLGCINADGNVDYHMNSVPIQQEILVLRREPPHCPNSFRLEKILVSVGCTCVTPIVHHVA
T7 sequence (looked up) 2: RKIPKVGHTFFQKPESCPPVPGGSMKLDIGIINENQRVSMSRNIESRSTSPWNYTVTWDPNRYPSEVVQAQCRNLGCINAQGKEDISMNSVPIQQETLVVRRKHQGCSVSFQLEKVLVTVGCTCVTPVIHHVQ
Experimental: as §1, §2

[10] = biological target: holo-Transferrin (UniProt P02787 20-698)
Chain of holo-Transferrin (P02787 20-698 limits assumed): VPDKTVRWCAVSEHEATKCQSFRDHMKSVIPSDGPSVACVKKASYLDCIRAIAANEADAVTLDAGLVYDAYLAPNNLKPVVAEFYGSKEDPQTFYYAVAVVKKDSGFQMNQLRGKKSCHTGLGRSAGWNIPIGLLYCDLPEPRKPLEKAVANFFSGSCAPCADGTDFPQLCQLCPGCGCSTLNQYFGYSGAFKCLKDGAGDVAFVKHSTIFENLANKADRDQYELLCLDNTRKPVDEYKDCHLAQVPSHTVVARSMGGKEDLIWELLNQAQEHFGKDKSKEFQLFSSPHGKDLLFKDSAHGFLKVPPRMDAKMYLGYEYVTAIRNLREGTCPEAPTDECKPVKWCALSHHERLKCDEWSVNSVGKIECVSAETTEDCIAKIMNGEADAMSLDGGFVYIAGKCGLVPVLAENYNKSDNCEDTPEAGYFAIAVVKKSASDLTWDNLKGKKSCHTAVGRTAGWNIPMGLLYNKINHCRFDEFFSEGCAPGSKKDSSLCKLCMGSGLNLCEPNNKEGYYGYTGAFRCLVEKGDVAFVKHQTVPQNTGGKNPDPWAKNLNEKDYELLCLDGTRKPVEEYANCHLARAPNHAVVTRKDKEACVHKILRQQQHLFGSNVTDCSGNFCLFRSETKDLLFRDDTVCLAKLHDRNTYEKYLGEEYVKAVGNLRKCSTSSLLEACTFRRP
Experimental: as §1, §2

[11] = biological target: hGM-CSF (human, UniProt P04141 18-144)
Chain of hGM-CSF (P04141 18-144 limits assumed): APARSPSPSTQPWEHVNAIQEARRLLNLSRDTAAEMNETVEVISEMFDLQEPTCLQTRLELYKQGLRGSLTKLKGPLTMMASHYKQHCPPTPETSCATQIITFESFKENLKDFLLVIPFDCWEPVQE
Experimental: as §1, §2

B1: ABD variant PEP07843 (designed binder)
chain: GSSLAEAKEAANAELDSYGVSDFYKRLIDKAKTVEGVEALKDAILAALP
B1: no binding (tested: 50, 250 nM) [1]; no binding (tested: 50, 250 nM) [2]; no binding (tested: 50, 250 nM) [3]. B1: no binding (tested: 50, 250 nM) [4]; no binding (tested: 50, 250 nM) [5]; no binding (tested: 2, 10, 50 nM) [6]. B1: no binding (tested: 50, 250 nM) [7]; no binding (tested: 50, 250 nM) [8]; no binding (tested: 50, 250 nM) [9]. B1: no binding (tested: 50, 250 nM) [10]; no binding (tested: 50, 250 nM) [11].
